Measured values reported in the RNAGym collection of RNA variant scans (doi:10.1073/pnas.2313332121).

B1: TPR t1 (parent)
chain: GACCAAUCUGCCCUCAGAGCUCGAGAACAUCUUCGGAUGCAGAGGAGGCAGGCUUCGGUGGCGCGAUAGCGCCAACGUCCUCAACCUCCAAUGCAUCCCACCACAUGAUGAUGCCUGAAGAGCCUUGGUUUUUUG

Variants of: B1
Assay: polymerase ribozyme fitness, log enrichment relative to wild type (log ratio); higher = more active; in vitro selection for triplet polymerase activity
In short: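 Fitness measures genotype enrichment against wild-type enrichment on a logarithmic scale, with inverse-variance-weighted averaging of replicates. The logarithm is base 2, and genotypes were kept only with ≥10 input reads and ≥1 read per output in Illumina sequencing. The sequenced libraries came from one triplicate in vitro selection round, including frozen incubation at −7 °C, of PCR-built, transcribed mutant libraries of each subunit of a heterodimeric triplet polymerase ribozyme.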

| Variant | polymerase ribozyme fitness (log ratio) |
| --- | --- |
| A6U A66G C85G | -2.09 |
| A6G C12U U30C A108G | 0.259 |
| A6U G48U A105U | -2.38 |
| A6U G10A C22U C82A | -5.33 |
| A6G G48A G71C G117A | -2.1 |
| A6G C12A G23C A66G C114U G128A | -5.09 |
| A6U G107U | -3.94 |
| A6U G36C G44A G77U C123G | -0.241 |
| A6G C79G C104A | -4.14 |
| A6U G39A C88A | -1.23 |
| A6U C62A A111U G122A | -5.22 |
| A6G C12U C22U A50G C56A | -4.54 |
| A6U G36U G71A G122U C124A | -1.43 |
| A6U U9G C40G G60U C80U U126C U131A | -3.72 |
| A6U G10A C15U A46C C53G G61U C79A C80U C115G A119G | -4.07 |
| A6G C76A C88G A121U G128A | -1.67 |
| A6C G44C G58A U96A | -2.15 |
| A6U G36U | -1.07 |
| A6U G36C | -1.42 |
| A6U C34U | -4.08 |
| A6G C34U G60U C72U U116A C124A | -4.04 |

| Variant | polymerase ribozyme fitness (log ratio) |
| --- | --- |
| A6G U7C A50U C80G U112G | -4.92 |
| A6U C79A G110A | -2.78 |
| A6U C8G G60A C72A U130C | -0.0324 |
| A6U C13A U21C G69A C82A | -2.61 |
| A6G A90U | -0.939 |
| A6G A43G | -2.57 |
| A6C U7G A29G G48C A95C | -3.37 |
| A6C U109C G110U C114U | -6.23 |
| A6G C73A U112A G120U U130G | 0.876 |
| A6C G63U C115A U116C | -4.89 |
| A6U C86U | -0.389 |
| A6U G48U C56G C82A | -1.65 |
| A6C G35U G39A G61U A74C C86U C101A C115U | -6.88 |
| A6U A27G C82U G110U | -2.67 |
| A6G A41C C56A G93U G117C | -4.14 |
| A6C G58C U92G C114A U130A | -4.44 |
| A6U G10C C34A U81A U112C G120C | -3.64 |
| A6G G48U | -0.663 |
| A6C U9G G47C G63A A83U G120U | -1.35 |
| A6U C20G C76U G113U | -1.29 |
| A6U C70U | -0.544 |

| Variant | polymerase ribozyme fitness (log ratio) |
| --- | --- |
| A6G U7C A74C C80G U112G | -6.27 |
| A6G C8U C49G C70A U78C | -3.15 |
| A6C G57C C70U | -0.399 |
| A6G C13U G51U C82U C94A A111G | -3.66 |
| A6U C53U C88U | -0.366 |
| A6U C20A G69U C85A | -4.42 |
| A6G A41C C76U C115U U130A U133A | -2.77 |
| A6G C11U C98A | -5.05 |
| A6U A37G C56U | 0.28 |
| A6G U7C C12U G23U C70U C72A U87G | -6.73 |
| A6U C49U G60A C94G G113A | -3.92 |
| A6G C102A C124A U130A | 0.13 |
| A6U C53G C114A U131C | -1.89 |
| A6U C85G | -1.65 |
| A6G A43G G69U | -0.0956 |
| A6G U7G G44U G58C G113A | -0.812 |
| A6G C99A C123U | -5.05 |
| A6G G36C C72U C80A U116A C123A | -5.42 |
| A6U C11G G48U C82G C85U | -0.874 |
| A6G C98U U106A C124A | 1.28 |
| A6G C72U C97U | -1.35 |

| Variant | polymerase ribozyme fitness (log ratio) |
| --- | --- |
| A6U G52A U116C | -1.36 |
| A6G C56G A103U | -4.63 |
| A6G U9C | 0.178 |
| A6C G57C | -0.375 |
| A6U C70U U129C | -1.04 |
| A6U U54G C70A | -3.12 |
| A6U C72G U78G U130C | -0.0449 |
| A6C G57C C79A C85U | -2.83 |
| A6G G61C C89U | -2.67 |
| A6U G93A | -0.555 |
| A6U G47A C53U C56A U59A A83U | -1.88 |
| A6U U7A A16C A46U C76A A84C A100C C124A | -5.09 |
| A6U U54C C72U | 0.695 |
| A6U G48U G71C G117A | -3.59 |
| A6U C72G C73U A90U C98G C102U A108U C123G | -7.4 |
| A6C G69U C72U | -0.0767 |
| A6G C22U G44C C88U | -6.05 |
| A6U G45U | -1.59 |
| A6C G47U C124A | -1.59 |
| A6C G47A C124G | 0.159 |
| A6G G58A U59C | -1.72 |
